Substitutions are numbered along the chain they refer to.
B1: clone A52 (antibody, V domains shown)
VH: EVQLVESGGGLVKPGGSLRLSCAASGFTFSSYAMNWVRQAPGKGLEWVSTITTGGSHTYYADSVDGRFTISRDNAKNSLYLQMNSLRAEDTAVYYCARQDGNFLMDYWGQGTLVTVSS
VL: DVVMTQTPLSLPVTLGQPASISCKSSQSLLDIDGKTYLNWLQQRPGQSPKRLIYLVSKLDSGVPDRFTGSGSGTDFTLKISRVEAEDVGVYYCWQGTHFPFTFGQGTKVEIKR
notes: Fab from phage library at selection; human IgG4/kappa IgG as purified
B2: clone A71 (antibody, V domains shown)
VH: B1 VH with H57Y, D65H
VL: B1 VL with I32T
notes: as for B1
B3: clone A74 (antibody, V domains shown)
VH: B1 VH with N35H, H57Y, D65Q
VL: B1 VL
notes: as for B1

What follows are binders tested against T1, recombinant human TFPI (tissue factor pathway inhibitor) (human, UniProt P10646 29-304) (assay: ELISA of phage-library Fab supernatants on TFPI-coated plate).
T1 construct: Biotin-conjugated in the yeast FACS; also called hTFPI; TFPI antigen
Method: Single colonies were collected from the finally amplified library, and then cultured in 1.5 mL of SB/carbenicillin at 37° C. at 220 rpm until an OD600 of about 0.8-1.0 was reached, followed by incubation with 1 mM IPTG at 30° C. at 200 rpm for 12 hours. Next, the cells were centrifuged at 5500 rpm for 5 minutes, and the supernatant was added to a TFPI antigen-coated ELISA plate, incubated at room temperature for 2 hours, and then washed four times with PBST (1×PBS, 0.05% tween 20). Next, a 1:5000 dilution of an HRP/anti-hFab-HRP conjugate (CAT. No. A0293, Sigma) with 1% BSA/1×PBS was added to the cells, after which the cells were incubated at room temperature for 1 hour and washed four times with PBST (1×PBS, 0.05% tween 20). Then, the cells treated with a TMB solution for 5-10 minutes, and a TMB stop solution was added to the cells. Next, the absorbance at a wavelength of 450 nm was measured using the TECAN sunrise, and clones having high O. D values were selected as individual clones.

Row | Binder | binding result
1 | B1 | binds
2 | B2 | binds
3 | B3 | binds

Source: patent publication US20180030151A1 (MOGAM INSTITUTE FOR BIOMEDICAL RESEARCH, published 2018)
